Test results as given in the supplement of paper PMC10567573.

B1: PKD2L1 (parent)
chain: TLARCAKDILGFAVMFFIVFFAYA

Variants of: B1
Experiment: protein stability index of a GFP-peptide fusion (GPS, HEK-293T) (PSI 1-6); higher = more stable
Details: c terminus: a fixed tail appended
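Also: lentivirally expressed fusions sorted by FACS into six bins by GFP to DsRed ratio, PSI derived from sequencing read proportions per bin multiplied by bin number.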

Protein stability index of substitutions, site by site:
D8: F 2.33 | R 2.06 | T 3.06 | C 2.56 | K 2.07 | Y 2.7 | M 2.76 | I 2.56 | S 1.98 | W 2.88 | N 1.91 | G 2.75 | E 2.21 | H 2.66
F20: D 1.83 | Q 3.46 | G 2.03 | T 1.92 | S 2.46 | A 1.99 | Y 2.46 | R 2.42 | H 2.07 | I 2.7 | P 3.48 | C 2.57
L2: Y 2.51 | R 3.68 | Q 3.4 | A 3.81 | N 2.5 | M 3.8 | V 1.24 | S 2.73 | D 3.71 | W 1.67 | G 3.03 | P 3.29 | E 2.8 | K 1.84
F16: R 3.37 | I 1.57 | C 1.79 | K 4.35 | Y 1.88 | S 1.82 | M 2.98 | P 1.96 | G 2.71 | T 2.41 | A 2.21 | H 2.28 | W 3.32 | L 3.69 | E 3.1 | N 2.6 | V 2.07
G11: S 3.06 | Y 2.38 | L 1.73 | T 3.47 | H 3.32 | E 3.51 | V 1.74 | P 1.81 | I 2.79 | K 3.33 | D 2.28 | F 1.22 | W 1.06 | M 1.48 | C 2.06
A24: F 2.65 | W 3.47 | P 3.52 | V 1.63 | Y 3.62 | R 1.45 | D 2.9 | I 1.68 | K 2.06 | Q 2.42 | L 3.01 | C 1.23
R4: Q 2.37 | V 4.36 | I 2.64 | C 2.28 | A 2.72 | L 3.07 | F 2.68 | G 3.84 | P 2.65 | Y 3.28 | K 2.6 | N 2.79
F21: R 2.16 | Y 3.96 | H 2.98 | T 2.88 | C 3.17 | S 2.01 | Q 1.38 | M 2.54 | N 2.78 | D 3.21 | A 2.11 | L 1.94 | W 2.46 | G 2.08
A3: D 2.56 | L 1.75 | C 2.83 | N 1.53 | Q 2.7 | W 1.87 | P 2.64 | V 1.94 | K 2.74 | I 4.3 | H 2.4 | T 3.62 | Y 4.87
L10: S 1.84 | C 2.79 | Y 2.38 | N 1.82 | H 1.83 | A 2.38 | I 2.42 | T 3.28 | F 1.91 | G 2.03 | V 2.92 | R 2.54 | W 2.49 | M 2.61 | Q 3.08
A13: N 2.11 | L 2.63 | D 1.84 | P 1.65 | G 2.06 | K 3.14 | R 3.17 | S 1.75 | E 2.82 | Q 2.25 | Y 2.65 | C 2.25 | H 2.15
V19: H 3.19 | Y 2.5 | A 2.61 | S 2.36 | E 2.11 | T 2.69 | G 2.34 | D 3.22 | C 2.32 | F 2.13 | N 2.39 | L 3.88 | K 2.34 | M 2.58 | W 3 | Q 3.48 | I 2.9
V14: Q 2.46 | M 1.61 | A 2.06 | G 1.9 | T 2.07 | P 1.82 | N 3.15 | H 2.85 | L 3.47 | S 2.61 | Y 3.2 | I 1.86 | C 2.86 | K 3.08
I9: S 2.6 | E 1.46 | Q 1.84 | G 2.66 | K 1.22 | C 3.32 | N 1.69 | V 2.24 | R 1.74 | M 3.48 | D 1.64 | H 2.46 | W 2.43 | Y 1.94 | T 1.58 | P 1.93 | F 3.86 | L 1.58
F12: A 1.42 | P 2.87 | Q 2.1 | R 2.02 | G 2.56 | T 1.89 | H 1.93 | C 1.87 | Y 1.89 | K 2.33 | W 3.56 | I 1.49 | D 2.24 | S 1.89 | L 3.16 | E 1.44
K7: A 2.16 | F 2.78 | T 2.83 | Q 3.71 | M 2.47 | H 3.13 | P 2.84 | V 4.08 | E 2.36 | Y 3.79 | I 2.36 | G 2.45 | D 3.17
I18: S 1.72 | A 2.54 | H 1.92 | M 1.49 | D 3.03 | R 2.18 | N 1.6 | E 2 | T 1.74 | Q 1.54 | G 2.09 | F 3.16 | P 2.18 | C 2.29 | Y 3.2
A6: V 2.95 | T 3 | N 3.44 | G 1.59 | M 2.09 | C 2.87 | W 2.75 | H 2.59 | L 4.57 | P 3.24
M15: K 2.58 | Q 3.41 | A 2.27 | N 1.32 | D 2.89 | W 2.5 | F 2.54 | H 2.17 | G 2.48 | S 1.33 | R 3.16 | V 1.88 | E 2.61 | L 1.25 | Y 1.72
T1: L 2 | K 3.97 | I 2 | A 2.36 | V 2.81 | F 3.18 | N 2.67 | W 1.62 | D 2.96
A22: Q 2.21 | G 4.34 | W 2.69 | N 2.92 | V 1.42 | L 2.14 | H 2.35 | T 1.83 | C 4.15 | E 2.82 | P 4.08 | Y 2.58 | R 1.95 | F 1.98 | M 1.48
C5: E 2.09 | Q 2.29 | N 1.9 | R 2.01 | D 2.61 | K 2.48 | T 4.06 | S 2.27 | G 2.59 | M 3.55 | P 1.71 | F 4.37 | H 1.6 | A 2.49 | V 2.5
Y23: G 2.6 | T 2.98 | K 2.31 | E 2.56 | L 2.34 | V 2.37 | S 2.47 | W 2.72 | R 1.42 | P 2.51 | I 1.51 | N 2.61 | F 1.57
F17: Q 1.98 | T 2.4 | H 3.23 | M 1.84 | W 1.91 | K 2.06 | A 1.79 | N 1.56 | G 2.44 | V 2.44 | D 3.23 | S 2.03 | R 2.98
